Read-outs that look alike come from different tables or passages of the source.
Key:
Experiment in all cases: cell-based or functional assay
[1] = molecular target: TSHR with Trp258 mutated to Alanine (human) (UniProt P16473)
[2] = molecular target: wild type human TSHR (human) (UniProt P16473)
[3] = molecular target: TSHR with Lys183 mutated to Alanine (human) (UniProt P16473)
[4] = molecular target: wild type human TSHR (human) (UniProt P16473); remark: listed apart in the source
[5] = molecular target: TSHR with Tyr82 mutated to Alanine (human) (UniProt P16473)
[6] = molecular target: wild type human TSHR (human) (UniProt P16473); remark: listed apart in the source
[7] = molecular target: wild type human TSHR (human) (UniProt P16473); remark: listed apart in the source
[8] = molecular target: TSHR with Ile60 mutated to Alanine (human) (UniProt P16473)
[9] = molecular target: wild type human TSHR (human) (UniProt P16473); remark: listed apart in the source
[10] = molecular target: TSHR with Lys129 mutated to Alanine (human) (UniProt P16473)
[11] = molecular target: wild type human TSHR (human) (UniProt P16473); remark: listed apart in the source

5C9 IgG (antibody), sequence (VH): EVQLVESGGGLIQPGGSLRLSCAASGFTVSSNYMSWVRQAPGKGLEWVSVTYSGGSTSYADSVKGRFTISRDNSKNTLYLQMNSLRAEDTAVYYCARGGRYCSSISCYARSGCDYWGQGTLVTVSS
5C9 IgG (antibody), sequence (VL): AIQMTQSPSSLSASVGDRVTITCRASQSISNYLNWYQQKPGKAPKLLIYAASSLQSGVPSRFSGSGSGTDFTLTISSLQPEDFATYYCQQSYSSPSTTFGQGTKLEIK

5C9 IgG (antibody)
Mutated/wild type (%); 5C9 0.01 µg/mL + TSH [1]: 34% | Mutated/wild type (%); 5C9 0.1 µg/mL + TSH [1]: 19% | Mutated/wild type (%); 5C9 1.0 µg/mL + TSH [1]: 43% | Mutated/wild type (%); 5C9 10 µg/mL + TSH [1]: 30% | Mutated/wild type (%); 5C9 100 µg/mL + TSH [1]: 37% | Mutated/wild type (%); 5C9 100 µg/mL only [1]: 200% | cyclic AMP; 5C9 0.01 µg/mL + TSH (fmol/cell well) [1]: 6620 | cyclic AMP; 5C9 0.1 µg/mL + TSH (fmol/cell well) [1]: 1940 | cyclic AMP; 5C9 1.0 µg/mL + TSH (fmol/cell well) [1]: 1130 | cyclic AMP; 5C9 10 µg/mL + TSH (fmol/cell well) [1]: 357 | cyclic AMP; 5C9 100 µg/mL + TSH (fmol/cell well) [1]: 484 | cyclic AMP; 5C9 100 µg/mL only (fmol/cell well) [1]: 423 | cyclic AMP; 5C9 0.01 µg/mL + TSH (fmol/cell well) [2]: 19500 | cyclic AMP; 5C9 0.1 µg/mL + TSH (fmol/cell well) [2]: 10500 | cyclic AMP; 5C9 1.0 µg/mL + TSH (fmol/cell well) [2]: 2620 | cyclic AMP; 5C9 10 µg/mL + TSH (fmol/cell well) [2]: 1190 | cyclic AMP; 5C9 100 µg/mL + TSH (fmol/cell well) [2]: 1320 | cyclic AMP; 5C9 100 µg/mL only (fmol/cell well) [2]: 211 | Mutated/wild type (%); 5C9 0.01 µg/mL + TSH [3]: 130% | Mutated/wild type (%); 5C9 0.1 µg/mL + TSH [3]: 211% | Mutated/wild type (%); 5C9 1.0 µg/mL + TSH [3]: 418% | Mutated/wild type (%); 5C9 10 µg/mL + TSH [3]: 618% | Mutated/wild type (%); 5C9 100 µg/mL + TSH [3]: 786% | Mutated/wild type (%); 5C9 100 µg/mL only [3]: 195% | cyclic AMP; 5C9 0.01 µg/mL + TSH (fmol/cell well) [3]: 23300 | cyclic AMP; 5C9 0.1 µg/mL + TSH (fmol/cell well) [3]: 24300 | cyclic AMP; 5C9 1.0 µg/mL + TSH (fmol/cell well) [3]: 14600 | cyclic AMP; 5C9 10 µg/mL + TSH (fmol/cell well) [3]: 7570 | cyclic AMP; 5C9 100 µg/mL + TSH (fmol/cell well) [3]: 11400 | cyclic AMP; 5C9 100 µg/mL only (fmol/cell well) [3]: 747 | cyclic AMP; 5C9 0.01 µg/mL + TSH (fmol/cell well) [4]: 18000 | cyclic AMP; 5C9 0.1 µg/mL + TSH (fmol/cell well) [4]: 11500 | cyclic AMP; 5C9 1.0 µg/mL + TSH (fmol/cell well) [4]: 3490 | cyclic AMP; 5C9 10 µg/mL + TSH (fmol/cell well) [4]: 1230 | cyclic AMP; 5C9 100 µg/mL + TSH (fmol/cell well) [4]: 1460 | cyclic AMP; 5C9 100 µg/mL only (fmol/cell well) [4]: 384 | Mutated/wild type (%); 5C9 0.01 µg/mL + TSH [5]: 113% | Mutated/wild type (%); 5C9 0.1 µg/mL + TSH [5]: 203% | Mutated/wild type (%); 5C9 1.0 µg/mL + TSH [5]: 185% | Mutated/wild type (%); 5C9 10 µg/mL + TSH [5]: 200% | Mutated/wild type (%); 5C9 100 µg/mL + TSH [5]: 105% | Mutated/wild type (%); 5C9 100 µg/mL only [5]: 494% | cyclic AMP; 5C9 0.01 µg/mL + TSH (fmol/cell well) [5]: 15700 | cyclic AMP; 5C9 0.1 µg/mL + TSH (fmol/cell well) [5]: 12700 | cyclic AMP; 5C9 1.0 µg/mL + TSH (fmol/cell well) [5]: 2960 | cyclic AMP; 5C9 10 µg/mL + TSH (fmol/cell well) [5]: 1650 | cyclic AMP; 5C9 100 µg/mL + TSH (fmol/cell well) [5]: 1030 | cyclic AMP; 5C9 100 µg/mL only (fmol/cell well) [5]: 1430 | cyclic AMP; 5C9 0.01 µg/mL + TSH (fmol/cell well) [6]: 13900 | cyclic AMP; 5C9 0.1 µg/mL + TSH (fmol/cell well) [6]: 6250 | cyclic AMP; 5C9 1.0 µg/mL + TSH (fmol/cell well) [6]: 1600 | cyclic AMP; 5C9 10 µg/mL + TSH (fmol/cell well) [6]: 822 | cyclic AMP; 5C9 100 µg/mL + TSH (fmol/cell well) [6]: 978 | cyclic AMP; 5C9 100 µg/mL only (fmol/cell well) [6]: 289 | cyclic AMP; 5C9 0.01 µg/mL + TSH (fmol/cell well) [7]: 13100 | cyclic AMP; 5C9 0.1 µg/mL + TSH (fmol/cell well) [7]: 6330 | cyclic AMP; 5C9 1.0 µg/mL + TSH (fmol/cell well) [7]: 2640 | cyclic AMP; 5C9 10 µg/mL + TSH (fmol/cell well) [7]: 1910 | cyclic AMP; 5C9 100 µg/mL + TSH (fmol/cell well) [7]: 1610 | cyclic AMP; 5C9 100 µg/mL only (fmol/cell well) [7]: 300 | Mutated/wild type (%); 5C9 0.01 µg/mL + TSH [8]: 236% | Mutated/wild type (%); 5C9 0.1 µg/mL + TSH [8]: 164% | Mutated/wild type (%); 5C9 1.0 µg/mL + TSH [8]: 210% | Mutated/wild type (%); 5C9 10 µg/mL + TSH [8]: 68% | Mutated/wild type (%); 5C9 100 µg/mL + TSH [8]: 181% | Mutated/wild type (%); 5C9 100 µg/mL only [8]: 426% | cyclic AMP; 5C9 0.01 µg/mL + TSH (fmol/cell well) [8]: 19000 | cyclic AMP; 5C9 0.1 µg/mL + TSH (fmol/cell well) [8]: 11600 | cyclic AMP; 5C9 1.0 µg/mL + TSH (fmol/cell well) [8]: 3290 | cyclic AMP; 5C9 10 µg/mL + TSH (fmol/cell well) [8]: 1210 | cyclic AMP; 5C9 100 µg/mL + TSH (fmol/cell well) [8]: 3130 | cyclic AMP; 5C9 100 µg/mL only (fmol/cell well) [8]: 260 | cyclic AMP; 5C9 0.01 µg/mL + TSH (fmol/cell well) [9]: 8020 | cyclic AMP; 5C9 0.1 µg/mL + TSH (fmol/cell well) [9]: 7100 | cyclic AMP; 5C9 1.0 µg/mL + TSH (fmol/cell well) [9]: 1570 | cyclic AMP; 5C9 10 µg/mL + TSH (fmol/cell well) [9]: 1770 | cyclic AMP; 5C9 100 µg/mL + TSH (fmol/cell well) [9]: 1730 | cyclic AMP; 5C9 100 µg/mL only (fmol/cell well) [9]: 61 | Mutated/wild type (%); 5C9 0.01 µg/mL + TSH [10]: 115% | Mutated/wild type (%); 5C9 0.1 µg/mL + TSH [10]: 488% | Mutated/wild type (%); 5C9 1.0 µg/mL + TSH [10]: 1270% | Mutated/wild type (%); 5C9 10 µg/mL + TSH [10]: 2040% | Mutated/wild type (%); 5C9 100 µg/mL + TSH [10]: 3240% | Mutated/wild type (%); 5C9 100 µg/mL only [10]: 203% | cyclic AMP; 5C9 0.01 µg/mL + TSH (fmol/cell well) [10]: 12200 | cyclic AMP; 5C9 0.1 µg/mL + TSH (fmol/cell well) [10]: 13300 | cyclic AMP; 5C9 1.0 µg/mL + TSH (fmol/cell well) [10]: 12800 | cyclic AMP; 5C9 10 µg/mL + TSH (fmol/cell well) [10]: 11200 | cyclic AMP; 5C9 100 µg/mL + TSH (fmol/cell well) [10]: 15900 | cyclic AMP; 5C9 100 µg/mL only (fmol/cell well) [10]: 217 | cyclic AMP; 5C9 0.01 µg/mL + TSH (fmol/cell well) [11]: 10500 | cyclic AMP; 5C9 0.1 µg/mL + TSH (fmol/cell well) [11]: 2710 | cyclic AMP; 5C9 1.0 µg/mL + TSH (fmol/cell well) [11]: 1010 | cyclic AMP; 5C9 10 µg/mL + TSH (fmol/cell well) [11]: 548 | cyclic AMP; 5C9 100 µg/mL + TSH (fmol/cell well) [11]: 491 | cyclic AMP; 5C9 100 µg/mL only (fmol/cell well) [11]: 107

Reference: patent US8840891 (RSR, dated 2014)
